Results reported in patent publication US20210253643A1 (UNIVERSITY OF BRITISH COLUMBIA, published 2021).

Target: T1, FhuA (E. coli, UniProt P06971 34-747)
T1 construct: also called FhuA receptor; FhuA transporter
T1 sequence (looked up): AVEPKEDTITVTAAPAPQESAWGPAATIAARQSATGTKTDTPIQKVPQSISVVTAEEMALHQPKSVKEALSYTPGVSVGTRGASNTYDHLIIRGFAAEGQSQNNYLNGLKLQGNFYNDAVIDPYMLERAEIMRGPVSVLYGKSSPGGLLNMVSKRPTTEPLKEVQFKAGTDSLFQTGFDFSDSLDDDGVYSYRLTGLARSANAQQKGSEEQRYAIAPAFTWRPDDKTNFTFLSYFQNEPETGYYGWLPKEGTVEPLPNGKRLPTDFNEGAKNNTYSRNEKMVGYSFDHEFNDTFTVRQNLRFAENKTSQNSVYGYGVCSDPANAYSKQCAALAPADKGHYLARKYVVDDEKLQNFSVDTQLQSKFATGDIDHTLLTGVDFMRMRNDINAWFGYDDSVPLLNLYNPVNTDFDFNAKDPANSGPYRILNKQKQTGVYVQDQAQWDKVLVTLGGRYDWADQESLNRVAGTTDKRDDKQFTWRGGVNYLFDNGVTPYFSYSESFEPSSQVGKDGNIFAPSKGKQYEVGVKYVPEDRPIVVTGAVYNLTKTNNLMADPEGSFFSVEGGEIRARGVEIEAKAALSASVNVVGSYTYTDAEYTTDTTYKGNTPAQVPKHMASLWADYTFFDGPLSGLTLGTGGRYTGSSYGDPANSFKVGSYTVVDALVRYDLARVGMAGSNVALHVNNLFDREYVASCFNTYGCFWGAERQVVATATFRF
Experiment: CN-PAGE band shift, Coomassie: about 2 µg FhuA in MSPL156 nanodisc with 5 µg colicin M, 5 min at room temperature, without and with ferricrocin

B1: Colicin M (other)
chain: METLTVHAPSPSTNLPSYGNGAFSLSAPHVPGAGPLLVQVVYSFFQSPNMCLQALTQLEDYIKKHGASNPLTLQIISTNIGYFCNADRNLVLHPGISVYDAYHFAKPAPSQYDYRSMNMKQMSGNVTTPIVALAHYLWGNGAERSVNIANIGLKISPMKINQIKDIIKSGVVGTFPVSTKFTHATGDYNVITGAYLGNITLKTEGTLTISANGSWTYNGVVRSYDDKYDFNASTHRGIIGESLTRLGAMFSGKEYQILLPGEIHIKESGKR
notes: also called ColM; His-tagged Colicin M
B1: binds.
